Assay: yeast display, Sf9 membrane polyspecificity reagent, FACS + sequencing; frameworks hold sequencing errors
Method in brief: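 Using colony PCR, genes from sorted yeast display clones were amplified, then sequenced on MiSeq at 2 × 250 and filtered by CDR length. The clones had been stained with 10% biotinylated, detergent-solubilized Sf9 membrane reagent for 1 hour at 4 °C and sorted by FACS into low and high (top ~1%) gates on anti-HA and streptavidin fluorescence. Polyreactivity labels come from the gate of origin.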

Row | Sequence | polyreactivity (PSR sort gate)
1 | QVQLVESGGGLVQAGGSLRLSCAASGFTFTPYAMGWYRQAPGKERELVATISWSGGSTYADSVKGRFTISRDNAKNTVYLQMNSLKPEDTAVYYCAADVYGVHAPQSDYWTKYDYWGQGTQVTVSS | low polyreactivity
2 | QVQLVESGGGLVQAGGSLRLSCAASGFTFTQNAAMGWYRQAPGKERELVGAISSGGRTYFADSVKGRFTISRDNAKNTVYLQMNSLKPEDTAVYYCAAVYRRSDFRGAKDGYYYWGQGTQVTVSS | low polyreactivity
3 | QVQLVESGGGLVQAGGSLRLSCAASGFTFTRNAMGWSRPAPGKERELVAAISKRGGTTYYADSVKGRFTISRDNAKNTVYLQMNSLKPEDTAVYYCAKDGGITGGYWGQGTQVSVSS | high polyreactivity
4 | QVQLVESGGGLVQAGGSLRLSCAASGFTFTRYAMGWYRQAPGKERELVAAISSSGGSTYYADSVKGRFTISRDNAKNTVYLQMNSLKPEDTAVYYCNKNWPRLYYYWGQGTQVTVSS | high polyreactivity
5 | QVQLVESGGGLVQAGGSLRLSCAASGFTFTRYAMGWYRQAPGKERELVAAITRSGSSTYYADSVKGRFTISRDNAKNTVYLQMNSLKQEDTAVYYCAARLHSPRYRYDYWGQGNQVTVSS | high polyreactivity
6 | QVQLVESGGGLVQAGGSLRLSCAASGFTFTRYAMGWYRQAPGTERELVAAISRRGGSTYYADSVKGRFTISRDNAKNTVYLQMNSLKPEDTAVYYCAKDAGSRTVREFGYWGQGTQVTVSS | high polyreactivity
7 | QVQLVESGGGLVQAGGSLRLSCAASGFTFTSNAMGWYRQAPGKERELVAAISRSGGRTYYADSVKGRFTISRDNAKNTVYLQLNSLKPEDTAVYYCNVRAEKRSYELYAYDYWGQGTQVTVSS | high polyreactivity
8 | QVQLVESGGGLVQAGGSLRLSCAASGFTFTSYAMGWYIQAPGKERELVAAINRSGGSTTYADSVKGRFTISRDNAKNTVYLQMNSQKPEDTAVYYCAKAFRGHYWGQGTQVTVSS | high polyreactivity
9 | QVQLVESGGGLVQAGGSLRLSCAASGFTFTTYAMGWYRQAPGKERELVARISRRSGSTYYADSVKGRFTISRDNAKNTVYLQMNSLKPEDTAVYYCNADVDRSTTIFDYWGQGTQVTVSS | high polyreactivity
10 | QVQLVESGGGLVQAGGSLRLSCAASGFTFTWYAMGLYRQAPGKERELVAAISSGGGRTYYADSVKGRFTISRDNAKNTVYLQMNRLKPEDTAVYYCNAVAGGVYVDNGYDYWGQGTQVTVSS | high polyreactivity
11 | QVQLVESGGGLVQAGGSLRLSCAASGFTFTYNAMGWYRQAPGKERELVAGITLGSRTNYADSVKGRFTISRDNAKNTVYLQMNSLKPEDTAVYYCAVRYYGGYGYWGQGTQVTVSS | high polyreactivity
12 | QVQLVESGGGLVQAGGSLRLSCAASGFTFTYYSMGWYRQAPGKERELVARINSCGNTNYADSVKGRFTISRDNAKNTVYLQMNSLKPEDTAVYSCARDACNRYDYWGQGTQVTVSS | low polyreactivity
13 | QVQLVESGGGLVQAGGSLRLSCAASGFTFVAYAMGWYRQAPGKERELVAAISRRGGTTYYADSVKGRFTISRDNEKNTVYLQMNSLKPEDTAVYYCNARSNFAFYRGNWAYDYWGQGTQVTVSS | high polyreactivity
14 | QVQLVESGGGLVQAGGSLRLSCAASGFTFVDYDMGWYRQAPGKERELVAAITYSGGSTSYADSVKGRFTISRDYAKNTVYLQMNSLKPEDTAVYYCNTEGFLSAVYAFGYWGQGTQVTVSS | low polyreactivity
15 | QVQLVESGGGLVQAGGSLRLSCAASGFTFVDYMGWYRQAPGKERELVAAIDNSGGGTYYADSVKGRFTISRDNAKNTVYLQMNSLKPEDTAVYYRYAYTFYIYEDVLYVQGDYYWGQGTQVTVSS | low polyreactivity
16 | QVQLVESGGGLVQAGGSLRLSCAASGFTFVGNAMGWYRQAPGKERELVATITSGGNTKYADSVKGRFTISRDNAKNTVYLQMNSLKPEDTAVYYCAAAKYNYRRFNYWGQGTQVTVSS | low polyreactivity
17 | QVQLVESGGGLVQAGGSLRLSCAASGFTFVGYAMGWYRQAPGKERELVAAITRRGGSTYYADSVKGRFTISRDNAKNTVYLQMNSLKPEDTGVYDCNKASYRISVPRYDYWGQGTQVTVSS | high polyreactivity
18 | QVQLVESGGGLVQAGGSLRLSCAASGFTFVINDMGWYRQAPGKERELVADITSGGDTYYADSVKGRFTISRDNAKNTVYLQMNSLTPEDTAVYYCAADIYPDWIYLLYGYWGHGTQVTVSS | low polyreactivity
19 | QVQLVESGGGLVQAGGSLRLSCAASGFTFVNHAMGWYRQAPGKERELVAAISGGRTTNYADSVKGRFTISRDNAKNTVYLQMNSLKPEDTAVYYCAARRYFGLWYFWYDYWGQGTQVTVSS | high polyreactivity
20 | QVQLVESGGGLVQAGGSLRLSCAASGFTFVNYVMGWYRQAPGKERELVAAISRSGGSTYYADSVKGRFTISRDNAKNTVYLQMNSLIPEDTAVYYCAARWFYRAGFNYWGQGTQVTVSS | high polyreactivity
21 | QVQLVESGGGLVQAGGSLRLSCAASGFTFVPNTMGWYRQAPGKERELVARIRWRGGSTYYADSVKGRFTISRDNAKNTVYLQMNSLKPEDTAVYYCNAVRGYDARPYSEVYHGEKYYYWGQGTQVTVSS | low polyreactivity
22 | QVQLVESGGGLVQAGGSLRLSCAASGFTFVPYAMGWYRPAPGKEREFVAAITSSGTTNYADSVKGRFTISRDNAKNTVYLQMNSLKPEDTAVYYCAADPDSGQVPFDYWGQGTQVTVSS | low polyreactivity

Row | Sequence | polyreactivity (PSR sort gate)
23 | QVQLVESGGGLVQAGGSLRLSCAASGFTFVQYAMGWYRPAPGKERELVATITNGGGSTYYADSVKGRFTISRDNAKNTVYLQMNSLKPEDPAVYYCNADSGGRGAPTSTYDYWGQGTQVTLSS | low polyreactivity
24 | QVQLVESGGGLVQAGGSLRLSCAASGFTFVRYAMGWYRQAPGKEREFVAAITWSGGGTYYADSVKGRFTISRDNAKNTVYLQMNSLKPEDTAVYYCAADRRAYGGGYWGQGTQVTVSS | high polyreactivity
25 | QVQLVESGGGLVQAGGSLRLSCAASGFTFVRYAMGWYRQAPGKERELVAAISSSGGSTYYADSVKGRFTISRDNAKNTVYLQMNSLKPEDTAVYYCAARPYARYSRNIDGYEYWGQGTQVTVSS | high polyreactivity
26 | QVQLVESGGGLVQAGGSLRLSCAASGFTFVRYAMGWYRQAPGKERELVAAISSSGSSTYYGDSVKGRFTISRDHEKNTVYLQMNSLKPEDTAVYYFNARAGRGEDYWGQGTQVTVSS | low polyreactivity
27 | QVQLVESGGGLVQAGGSLRLSCAASGFTFVSYAMGGYRQAPGKERELVASISSGGSTYYADSVKGRFTISRDNAKNTVYLQMNSLKPEDTAVYYCAAYSRWGRWFTIYNYWGQGTQVTVSS | high polyreactivity
28 | QVQLVESGGGLVQAGGSLRLSCAASGFTFVSYAMGWYRQAPGKEREFVATISKRGGSTYYADSVKGRFTNSRDNAKNTVYLQMNSLKPEDTAVYYCAAARNVYRGRVYWGRYDYWGQGTQVTVSS | high polyreactivity
29 | QVQLVESGGGLVQAGGSLRLSCAASGFTFVYYAMGWYRPAPGKERDLVATISGNGGRTYYADSVKGRFTISRDNAKNTVYLQMNSLKPEDTAVYYCATDVGFGRKQRPHRPGYGYWGQGTQVTVSS | low polyreactivity
30 | QVQLVESGGGLVQAGGSLRLSCAASGFTFVYYAMGWYRQAPGKERELVAAISRGGSTYYADSVKGRFTISRDNAKNTVYLQMNCLKPVDTAVYYCNAKKSGHYVSYPAYDYWGQGTQVTVSS | low polyreactivity
31 | QVQLVESGGGLVQAGGSLRLSCAASGFTFVYYAMGWYRQAPGKERELVATITRSGDSTYYADSVKGRFTISRDNAKNTVYLQMNSLKPEDTAVYYCAAQPGTASYAGDGDSWGQGTQVTVSS | low polyreactivity
32 | QVQLVESGGGLVQAGGSLRLSCAASGFTFWANAMGWYRQAPGKERELVAAISWSGGSTTYADSVKGRFTISRDNAKNTVYLQMNSLKPEDTAVYYCATDYGHYVTYRLSDYWGQGTQVTVSS | low polyreactivity
33 | QVQLVESGGGLVQAGGSLRLSCAASGFTFWAYAMGWYRQAPGKERELVAPISWSGGITYYADSVKGRFTISRDNAKNTVYLQMNSLKPEDTAVYYCAADPYVLVWVEDYDYWVQGTQVTVSS | high polyreactivity
34 | QVQLVESGGGLVQAGGSLRLSCAASGFTFWGNAMGWYRQAPGKEREMVAAITDTGSTNYADSVKGRCTISRDNAKNTVYLQMNSLKPEDTAVYYCAKDKAYYDWGQTNGYWGQGTQVTVSS | low polyreactivity
35 | QVQLVESGGGLVQAGGSLRLSCAASGFTFWGYAMGWYRQAPGKERELVAGITRSGGNTYYADSVKGRFTISRDNAKNTVYLEMNSLKPEDSAVYYCAKRHFWNLTPYYFYRTIPDYYWGQGTQVTVSS | high polyreactivity
36 | QVQLVESGGGLVQAGGSLRLSCAASGFTFWIYAMGWYRQAPGKERELVAVISRGGSTYYADSVKGRFTISRDNAKNTVYLQMNSMKPEDTAVYYCNAVGVRGYDYWGQGTQVTVSS | high polyreactivity
37 | QVQLVESGGGLVQAGGSLRLSCAASGFTFWKYTMGWYRQAPGKERELVAAITNSGTSTYYADSVKGRFTISRDNAKNTVYLQMNSLKPEDTAVYYCARDNEPDYYSYPYDYWGQGTQVTVSS | low polyreactivity
38 | QVQLVESGGGLVQAGGSLRLSCAASGFTFWLYAMGWYRQATGKEREFVAAISTSGGSTYADSVKGRFTISRDNAKNTVYLQMNSLKPEDTAVYYCNAGYLLYYDYHLFYWGQGTQVTVSS | low polyreactivity
39 | QVQLVESGGGLVQAGGSLRLSCAASGFTFWPYAMGWYRQAPGKERELVAAITWSGGRTYYADSVKGRFTISRDNAKNTVYLQMNSLKPEDTAVYYCNVDAYGYRPYRYYYWGQGTQVTVSS | high polyreactivity
40 | QVQLVESGGGLVQAGGSLRLSCAASGFTFWQYTMGWYRQAPGKERDFVASITSGVSTYYADSVKGSFTISRENAKNTVYLQMNSVKPEDTAVYYCAAYYYRRYLRGFFENWGQGTQVTVSS | high polyreactivity
41 | QVQLVESGGGLVQAGGSLRLSCAASGFTFWRNTMGWYRQEPGKERELVAGISGSGGSTYYADSVKGRFTSSRDNAKNTVYLQMNSLKPEDTAVYYCAKEPNVGTWRRWRYNYCGQGTQVTVSS | high polyreactivity
42 | QVQLVESGGGLVQAGGSLRLSCAASGFTFWRNVMGWYRQAPGKERELVAVISRGGSTNYADSVKGRFTISRDNAKNTVYLQMNRLKPEDTAVYYCPKYARGPSKVDYWGQGTQVTVSS | high polyreactivity
43 | QVQLVESGGGLVQAGGSLRLSCAASGFTFWRYAKGWYRHAPGKERELVAAISSGGSTNYADSVKGRFTISRDNAKNTVYIQMNSLKPEDTAVYYCNARYYHKRSTRVIFPYDYWGQGTQVTVSS | high polyreactivity

Source: the nanobody polyreactivity screen of Harvey et al. (2022)
